From patent US20190201487

Target: T1, neonatal NET-Inhibitory Factor (nNIF)
T1 chain: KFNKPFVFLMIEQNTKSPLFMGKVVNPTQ

B1: neutrophil elastase (NE) (protein)
chain: IVGGRRARPHAWPFMVSLQLRGGHFCGATLIAPNFVMSAAHCVANVNVRAVRVVLGAHNLSRREPTRQVFAVQRIFENGYDPVNLLNDIVILQLNGSATINANVQVAQLPAQGRRLGNGVQCLAMGWGLLGRNRGIASVLQELNVTVVTSLCRRSNVCTLVRGRQAGVCFGDSGSPLVCNGLIHGIASFVRGGCASGLYPDAFAPVAQFVNWIDSIIQ
NE enzyme activity in vitro (cleavage of (MeOSuc)-AAPV-(pNA)): neither nNIF nor CRISPP inhibited NE activity
